Our source for the Kd values is publication PMC11203576 (International Journal of Molecular Sciences, 2024).

The assay concerns the target T1, SARS-CoV-2 spike protein RBD, original (wild-type), sfGFP fusion (SARS-CoV-2, UniProt P0DTC2).
T1 construct: also called original RBD; original SARS-CoV-2 RBD
Briefly: SPR; Biacore T200; […] (0.01 M HEPES, 0.15 M NaCl, 3 mM EDTA, 0.05% surfactant P20, […]. As to conditions: both partners purified.

B1: Recombinant Microcystis viridis NIES-102 lectin (rMVL) (natural protein)
chain: MASYKVNIPAGPLWSNAEAQQVGPKIAAAHQGNFTGQWTTVVESAMSVVEVELQVENTGIHEFKTDVLAGPLWSNDEAQKLGPQIAASYGAEFTGQWRTIVEGVMSVIQIKYTF
notes: also called Microcystis viridis lectin
With B1, the equilibrium dissociation constant (Kd) worked out at 2080 nM.
